Source: US20060253917A1 (published 2006)
Ends that are not written are not given here.

What was measured:
Os018989-4003 aa 90-220 = molecular target: T1, Os018989-4003 aa 90-220 (Oryza sativa); test: Y2H; output trait library
T1 construct: bait, Gal4 DBD fusion; also called PN21044
T1 chain: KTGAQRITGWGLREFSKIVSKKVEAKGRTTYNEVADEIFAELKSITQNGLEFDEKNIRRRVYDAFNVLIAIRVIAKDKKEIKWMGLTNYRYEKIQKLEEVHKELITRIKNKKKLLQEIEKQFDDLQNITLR
In short: (§1)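 Protein-protein interactions were detected in an automated, high-throughput yeast two-hybrid assay from Myriad Genetics Inc. (Salt Lake City, Utah), with a bait clone encoding a defined amino-acid fragment of a rice protein screened against the input trait or output trait rice prey library. Interacting proteins were identified by BLAST comparison of the encoding sequences of retrieved prey clones against databases.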

OsCYCOS2 aa 50-233 = molecular target: T2, OsCYCOS2 aa 50-233 (Oryza sativa, UniProt A2YH60 50-233); test: Y2H; input trait library
T2 construct: bait, Gal4 DBD fusion; also called PN20257; O. sativa Cyclin OsCYCOS2
T2 chain: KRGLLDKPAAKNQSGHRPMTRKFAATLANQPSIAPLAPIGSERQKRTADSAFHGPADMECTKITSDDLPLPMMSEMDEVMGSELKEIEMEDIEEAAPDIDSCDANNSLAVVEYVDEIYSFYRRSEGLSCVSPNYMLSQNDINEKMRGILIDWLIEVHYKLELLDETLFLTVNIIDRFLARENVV
In short: as §1

OsCAA90866 aa 100-250 = molecular target: T3, OsCAA90866 aa 100-250 (Oryza sativa); test: Y2H; input trait library
T3 construct: bait, Gal4 DBD fusion; also called PN20311; O. sativa Chilling-Inducible Protein CAA90866
T3 chain: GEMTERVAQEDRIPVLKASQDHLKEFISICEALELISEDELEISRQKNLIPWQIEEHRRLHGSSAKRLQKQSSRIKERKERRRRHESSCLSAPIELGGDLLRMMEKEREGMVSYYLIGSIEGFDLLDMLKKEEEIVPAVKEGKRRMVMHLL
In short: as §1

OsRAP1B aa 30-180 = molecular target: T4, OsRAP1B aa 30-180 (Oryza sativa, UniProt Q10CQ1 30-180); test: Y2H; output trait library
T4 construct: bait, Gal4 DBD fusion; also called PN20232
T4 sequence: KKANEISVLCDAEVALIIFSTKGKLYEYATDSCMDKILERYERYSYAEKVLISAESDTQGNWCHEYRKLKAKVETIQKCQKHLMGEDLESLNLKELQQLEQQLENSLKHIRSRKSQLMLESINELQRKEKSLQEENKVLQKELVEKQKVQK
In short: as §1

Os005750-3115 aa 50-150 = molecular target: T5, Os005750-3115 aa 50-150 (Oryza sativa, UniProt Q6IVC3 50-150); test: Y2H; output trait library
T5 construct: bait, Gal4 DBD fusion; also called PN20466; O. sativa bZIP Transcription Factor
T5 sequence: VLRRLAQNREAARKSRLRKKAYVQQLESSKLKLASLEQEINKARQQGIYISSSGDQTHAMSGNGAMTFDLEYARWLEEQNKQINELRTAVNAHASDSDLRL
In short: as §1

OsMADS5 aa 50-160 = molecular target: T6, OsMADS5 aa 50-160 (Oryza sativa, UniProt A2Y9P0 50-160); test: Y2H; output trait library
T6 construct: bait, Gal4 DBD fusion; also called PN20770
T6 sequence: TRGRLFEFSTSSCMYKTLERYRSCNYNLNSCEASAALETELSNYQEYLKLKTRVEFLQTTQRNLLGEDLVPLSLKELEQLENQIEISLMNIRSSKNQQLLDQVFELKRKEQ
In short: as §1

OsPP2A-2 aa 150-308 = molecular target: T7, OsPP2A-2 aa 150-308 (Oryza sativa, UniProt A2XN40 150-307); test: Y2H; output trait library
T7 construct: bait, Gal4 DBD fusion; also called PN20254
T7 sequence: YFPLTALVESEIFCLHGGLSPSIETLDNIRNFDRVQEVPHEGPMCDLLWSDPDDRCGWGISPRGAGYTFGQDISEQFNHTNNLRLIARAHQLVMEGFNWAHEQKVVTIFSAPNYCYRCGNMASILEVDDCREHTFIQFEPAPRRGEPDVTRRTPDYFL

B1: OsE2F1 aa 191-436 (other)
chain: LQAEVENLSLKEQALDERISDMREKLRGLTEDENNQRWLYVTEDDIKGLPCFQNETLIAIKAPHGTTLEVPDPDEAGDYLQRRYRIVLRSTMGPIDVYLVSQFDEKFEDLGGGATPSGHANVPKHQPTEVFNTTNAGVGQCSNSVAVDNNIQHSQTIPQDPSASHDFGGMTRIIPSDIDTDADYWLISEGDVSITDMWKTAPDVQWDESLDTDVFLSEDVRTPSSHNQQPSAVGGPQMQVSDMHKP
notes: prey, AD fusion; also called PN19758
Os018989-4003 aa 90-220
  binding result: binds

B2: OsPN23274 aa 79-210 (other)
chain: GELPRSASLCLREVLLVLQRFKAIVADCSARSRMRLLLESDEMEAELRELNHDLATLLDLLPVVELGLADDVLDVLALASRQCRRCSPAPESEEALKASVLSLIQEIEREIVPERERLEEILVEVGINDPAS
notes: prey, AD fusion; also called Novel Protein PN23274, Similar to A. thaliana ARM Repeat-Containing Protein
OsCYCOS2 aa 50-233
  binding result: binds

B3: OsPN23045 aa 240-287 (other)
chain: ILSKLVQAKELLKEYVEREKKKREERSETPKSNEAVTKFDGSLNSMRH
modifications: not fully specified
notes: prey, AD fusion; also called Novel Protein PN23045
OsCAA90866 aa 100-250
  binding result: binds

B4: OsMADS8 aa 74-183 (other)
chain: SYGGPDTAIQNKENELVQSSRNEYLKLKARVENLQRTQRNLLGEDLGTLGIKELEQLEKQLDSSLRHIRSTRTQHMLDQLTDLQRREQMLCEANKCLRRKLEESNQLHGQ
notes: prey, AD fusion; also called PN20778
OsRAP1B aa 30-180
  binding result: binds

B5: OsAAG13633 aa 538-738 (other)
chain: CSAHLSIISDLEANVESLENELQEQSKRLEADIQEVMRAKVEQEQRAIKAEESLRKARWNNATTAERLQEEFKMLSSQVSSAFSANEQLLMQARKEAAELQLQKGQLEELLQKAQEDLGSIQEQHRVKVQQLLTLVDFKSKETDRLVMELKSKSDEFQNQKRCNEAKLSVLSEEIDQLKAKIENLSNERDNLFEENEQKDK
notes: prey, AD fusion; also called PN25701
Os005750-3115 aa 50-150
  binding result: binds

B6: OsAAG13633 aa 612-738 (other)
chain: LSSQVSSAFSANEQLLMQARKEAAELQLQKGQLEELLQKAQEDLGSIQEQHRVKVQQLLTLVDFKSKETDRLVMELKSKSDEFQNQKRCNEAKLSVLSEEIDQLKAKIENLSNERDNLFEENEQKDK
notes: as for B5
Os005750-3115 aa 50-150
  binding result: binds

B7: OsPN23225 aa 639-792 (other)
chain: FGIRILDEAQQCIEELQCPEYYSEIVKEAINLALDKGPNFIDPLVRLLEHLHTKKIFKTEDLKTGCLLYAALLEDIGIDLPLAPALFGEVVARLSLSCSLSFEVVEEILKAVEDTYFRKGIFDAVMKTMGGNSSGQAILSSHAVVIDACNKLLK
notes: prey, AD fusion; also called Novel Protein PN23225, Similar to Tritticum aestivum Initiation Factor (iso)4f p82 Subunit
OsCAA90866 aa 100-250
  binding result: binds

B8: PN23416 aa 130-176 (other)
chain: YFEKQRAMNQVRQRVFQQAVQGALGTLNSCLNTELHFRTIRANISIL
modifications: not fully specified
notes: prey, AD fusion; also called Chloroplast ATPase I Subunit
OsCYCOS2 aa 50-233
  binding result: binds

B9: OsAAG46136 aa 92-222 (other)
chain: FGVNSGTTRFALENQAINEATFRCPDELGWKPQRAPIVSSDGSISNLRKTTVPVNEVNKSLQQMGFDVAPSDDAGRFVCNYVYYQSLRFAEQRGIKSLFVHFPLFTTISEEVQMNFVATLLEVLASQNYAQ
notes: prey, AD fusion; also called PN23186; O. sativa Putative Pyrrolidone Carboxyl Peptidase
OsCAA90866 aa 100-250
  binding result: binds

B10: OsMADS5 aa 121-225 (other)
chain: LSLKELEQLENQIEISLMNIRSSKNQQLLDQVFELKRKEQQLQDANKDLKRKIQETSGENMLHISCQDVGPSGHASEANQEFLHHAICDPSLHIGYQAYMDHLNQ
notes: prey, AD fusion; also called PN20770
OsRAP1B aa 30-180
  binding result: binds

B11: Os000564-1102 aa 72-172 (other)
chain: SIEQKEESRGNEDRVTLIKDYRGKIETELTKICDGILKLLESHLVPSSTAPESKVFYLKMKGDYYRYLAEFKTGAERKDAAENTMVAYKAAQDIALAELPP
notes: prey, AD fusion; also called PN20072; Hypothetical protein 000564-1102
OsMADS5 aa 50-160
  binding result: binds

B12: OsPN24162 aa 28-164 (other)
chain: QKLTVSTVSSSGVGLTSTAVKKGGLYTLDVSSVYKYKSTLVDVKVDTESNISTTLTVFDVLPSTKLVTSVKLPDYNSGKVEMQYFHENASFATAVGMKPSPVVEFSGTAGAQGLAFGAEAGFDTATGKFTKYSAAIG
notes: prey, AD fusion; also called Novel Protein PN24162, Porin-like, Voltage-Dependent Anion Channel Protein
OsPP2A-2 aa 150-308
  binding result: binds

B13: Os011994-D16 aa 99-368 (other)
chain: FGPSFGGGGSSRGRRQRRGEDVIHPLKVSLEDLYNGTSKKLSLSRNVLCAKCKGKGSKSGASMRCPGCQGSGMKITIRQLGPSMIQQMQQPCNECKGTGESINEKDRCPGCKGEKVIQEKKVLEVHVEKGMQHNQKITFPGEADEAPDTVTGDIVFVLQQKDHSKFKRKGDDLFYEHTLSLTEALCGFQFVLTHLDNRQLLIKSNPGEVVKPDQFKAINDEGMPMYQRPFMKGKLYIHFTVEFPDSLAPEQCKALEAVLPPKPASQLTEM
notes: prey, AD fusion; also called PN20618; Hypothetical Protein 011994-D16, Similar to Z. mays DnaJ protein
OsPP2A-2 aa 150-308
  binding result: binds

B14: OsPN22824 aa 393-494 (other)
chain: ASLVEQDLKERAAREARMGEQLRASEAARETLEAEMRRLRVQTEQWRKAAEAAPPVIGGDAHFVGHNGNGWGSPATMPDDCDDEGFGGKRKGAGIRMLGDLW
notes: prey, AD fusion; also called Novel Protein PN22824, Myosin heavy chain
Os018989-4003 aa 90-220
  binding result: binds

B15: OsAAK72891 aa 339-651 (other)
chain: ELDLQEKTEELFKFKREKGLLTLKNDVEFEPLRKKIPQIISRMDQIISKNIKMPSLCMTNDGLDERCISAKRIDSLYYENQHLRGLLADNMKDVKELSSQLSEASKEMSIQLSSEDDLLRQIAKIKEEYEDLQIEAGVRDGVYQTITRKLLDDSMNSMHDAATNFSTELSSLEAMISEKEKALCLSNEENRMLKEKIAELEQCLIQDKQEDPEVIKQESTEIILRDIEVAPHISPRRSHETPKQDMQYDELVKLNSSLEIASAALKEVENKNIDYNGIFTKNEQEKQLECILISIMKLSKEFVEIEQKLSVER
notes: prey, AD fusion; also called PN26317
Os018989-4003 aa 90-220
  binding result: binds

B16: OsBAB56078 aa 51-155 (other)
chain: PGRFVRKCEKTEQLLRDCVGSDIEALEKGLFGSIGSFLDDAERMTNDFLKSFGVPSINERESSSFDGQPTGRHIGGQPAGRHIEEGTAKDTKQNDYAEFSSKITD
notes: prey, AD fusion; also called PN28517; O. sativa Hypothetical protein BAB56078
OsMADS5 aa 50-160
  binding result: binds

B17: OsCAA33838 aa 5-155 (other)
chain: VFSRFSIYFCVLLLCHGSMAQLFNPSTNPWHSPRQGSFRECRFDRLQAFEPLRKVRSEAGVTEYFDEKNELFQCTGTFVIRRVIQPQGLLVPRYTNIPGVVYIIQGRGSMGLTFPGCPATYQQQFQQFSSQGQSQSQKFRDEHQKIHQFRQ
notes: prey, AD fusion; also called PN24775; O. sativa Glutelin CAA33838
OsPP2A-2 aa 150-308
  binding result: binds

B18: OsAAG13633 aa 528-789 (other)
chain: LREQLRMQYECSAHLSIISDLEANVESLENELQEQSKRLEADIQEVMRAKVEQEQRAIKAEESLRKARWNNATTAERLQEEFKMLSSQVSSAFSANEQLLMQARKEAAELQLQKGQLEELLQKAQEDLGSIQEQHRVKVQQLLTLVDFKSKETDRLVMELKSKSDEFQNQKRCNEAKLSVLSEEIDQLKAKIENLSNERDNLFEENEQKDKELAANCQKDMFLQDRDAEIALLNKELASIKDQVQTYLEEINTLKSSKNEKE
notes: as for B5
Os005750-3115 aa 50-150
  binding result: binds

B19: OsMADS13 aa 69-230 (other)
chain: RYKKAHACGSTSGAPLIEVNAQQYYQQESAKLRHQIQMLQNTNKHLVGDNVSNLSLKELKQLESRLEKGIAKIRARKNELLASEINYMAKREIELQNDNMDLRTKIAEEEQQLQQVTVARSAAMELQAAAAAQQQQQNPFAVAAAQLDMKCFFPLNLFEAAA
notes: prey, AD fusion; also called PN20668
OsMADS5 aa 50-160
  binding result: binds

B20: PN23297 aa 980-1160 (other)
chain: LRLTLERRLRAAGEEAKSVEILKRDKLIESLSAKCAAAKSAAQSEHDKNLLLQRQLDDSLREITMLRSSKIMTAEAERENSNLKNLVESLSKNNSSLEYELTSARKGSDATMKKLKDVEGKCNHLQQNLDKLQEKLTNMENENHVLRQKALNMSPLNNMPMTTKAFPQKFATPIGLPNGEQ
notes: prey, AD fusion; also called 15451591; O. sativa Putative Myosin Heavy Chain
OsCYCOS2 aa 50-233
  binding result: binds
